This is an account of results in patent US20210115447, “NUCLEIC ACID APTAMERS TARGETING LYMPHOCYTE ACTIVATION GENE 3 (LAG-3) AND USES THEREOF” (Oneness Biotech Co., Ltd., published 2021).

The target in data set [1] is T1, LAG-3 (lymphocyte activation gene 3) (Homo sapiens, UniProt P18627 P18627:23-450).
T1 sequence: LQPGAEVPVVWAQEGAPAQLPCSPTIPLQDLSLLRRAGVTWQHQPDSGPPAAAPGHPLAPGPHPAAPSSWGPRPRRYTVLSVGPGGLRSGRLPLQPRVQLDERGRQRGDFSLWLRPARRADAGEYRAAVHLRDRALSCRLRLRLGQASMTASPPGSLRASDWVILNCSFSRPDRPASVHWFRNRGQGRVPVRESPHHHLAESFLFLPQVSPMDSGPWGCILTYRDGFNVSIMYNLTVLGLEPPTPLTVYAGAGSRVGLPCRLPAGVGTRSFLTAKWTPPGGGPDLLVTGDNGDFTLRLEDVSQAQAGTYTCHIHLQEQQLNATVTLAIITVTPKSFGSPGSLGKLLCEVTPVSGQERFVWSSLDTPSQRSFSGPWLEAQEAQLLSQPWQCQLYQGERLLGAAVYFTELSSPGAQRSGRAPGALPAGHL
As to the kind of experiment: pulldown; His-LAG-3 on nickel beads, qPCR. To be noted: tags: His-tagged, attached to nickel coated beads or plate wells; label: 5'-biotin. As for the experimental part: (§1) To directly test binding of LAG-3 aptamers to LAG-3, in vitro binding assays were performed using His-tagged recombinant LAG-3 attached to nickel coated beads or nickel coated wells of a plate. Bound LAG-3 aptamers were eluted and detected by qPCR. Using the bead based assay, binding of aptamers B4 and B8 to recombinant LAG-3 increased in a concentration dependent manner. FIG. 1C. […] FIG. 1D.
To identify the minimal sequence of aptamer B4 that is involved in binding to LAG-3, various truncated versions of aptamer B4 were prepared and their binding activities to LAG-3 were investigated in the binding assays described herein, using R9R as a negative control. Aptamer sequences of these truncated versions of aptamer B4 and their dissociation constants (Kds) for binding to recombinant LAG-3 are shown in Table 2. Binding of aptamers B4, B4-SL2, B4-SL3, and B4-SL4 to recombinant LAG-3 increased in a concentration dependent manner. FIG. 1E. […] FIG. 1E.
For orientation: In qPCR the cycle at which signal appears reflects the starting amount.

The target of data set [2] is T1, LAG-3 (lymphocyte activation gene 3). Kind of data set: pulldown; His-LAG-3 on nickel beads, bound aptamer eluted and detected by qPCR. To be noted: tags: His-tagged, attached to nickel coated beads or plate wells; label: 5'-biotin.
The target is the same in data set [3]. Kind of data set: pulldown; concentration dependent; nickel beads, qPCR. To be noted: tags: His-tagged, attached to nickel coated beads or plate wells. As for the experimental part:
as §1

One may read the Kd as the free concentration of one partner at which half of the binding sites on the other are occupied at equilibrium, for simple one-to-one binding. The low end stands for higher affinity, the high end for lower affinity.

Molecule CTGGGGGGGGTTAGTTCAATACATGCGGGCGGCCA (ssDNA) [5'Bio-B4-SL4] gave a Kd in data set [1] of 9.47 nM. In data set [1], GCTAACTGGGGGGGGTTAGTTCAATACATGCGGGC (ssDNA) [5'Bio-B4-SL3] gave a Kd of 10.7 nM. With ACGGCGCTAACTGGGGGGGGTTAGTTCAATACATG (ssDNA) [5'Bio-B4-SL2], in data set [1], the affinity, expressed as Kd, was 8.05 nM. This Kd and that of the molecule before are within 1.5-fold of each other.

B1: 5'Bio-B4 (ssDNA)
DNA: TCCCTACGGCGCTAACTGGGGGGGGTTAGTTCAATACATGCGGGCGGCCACCGTGCTACAAC
For B1, binding in data set [2] was put at a Kd of 38.1 nM.

B2: B8 (ssDNA)
DNA: TCCCTACGGCGCTAACTGGGGGGGGGTTAGACTTACACTCTTATTCGGCCACCGTGCTACAAC
As for B2, the binding result in data set [3] is reported as “binds”.
